Measurements published in US7541156B1, “Method of identifying antinociceptive compounds using protease activated receptor-2” (priority 2000, dated 2009).
Blank lines part the entries; values can stand above or below the molecule they belong to. No end group written: not given here.

How the values were obtained:
[1] = tested on: cultured adult rat thoracic DRG neurons; experiment: CGRP release assay in cultured DRG neurons; format: cell-based; conditions: 10 min pretreatment with peptide 10 μM, mean of wells, three experiments
Protocol: Cell Culture. Primary cultures of rat DRG neurons were prepared from male adult Sprague Dawley rats (200-250 gm). Following enzymatic treatment and dissociation, neurons were spun through a percoll cushion (Hofbauer et al. 1998) and were plated at a density of 10,000-20,000 neurons/well of a 48 well tissue culture plate. Cultures were maintained in DME+10% FCS supplemented with penicillin/streptomycin, 150 μM uridine and 50 μM 5-fluoro-2-deoxyuridine (Nguyen et al. 1999). NGF (murine, recombinant, 2.5S; Promega, Madison, Wis.) was used at 50 ng/ml. Neurons were treated for five days before release experiments or Calcium-imaging studies were performed.
CGRP release assay. Immunoreactive calcitonin gene-related peptide (IR-CGRP) release from DRG cultures was performed as described by Hingtgen et al. (1995). Briefly, neuron cultures were washed with Release Buffer (RB) (25 mM Hepes, pH 7.4, 135 mM NaCl, 3.5 mM KCl, 2.5 mM CaCl2, 1 mM MgCl2, 3.3 mM Glucose, 0.1% BSA, 1 μM phosphoamidon), and were incubated for 10 min at 37° C. in RB plus 0.1% ethanol (Capsaicin vehicle) to measure basal CGRP release. Fresh RB containing the appropriate concentration of activating peptide (AcPep) or control peptide (CoPep) was added for an additional 10 minutes. Peptide treatment was followed by a 10 minute incubation with an appropriate dose of Capsaicin or KCl. IR-CGRP released by neurons was measured by ELISA. Activating peptide and control peptide were prepared by standard solid phase synthesis procedures by the UTMB Core Protein Facility.
CGRP Quantification. CGRP was quantified in a standard sandwich ELISA. In brief, 96-well “U” bottom microtiter ELISA plates (Dynex, Chantilly, Va.) were coated with affinity purified polyclonal rabbit antibody to rat CGRP (Peninsula Labs, Belmont, Calif.) at 3 μg/ml in 0.125M borate buffered saline (pH 8.1) (100 μl/well). The plates were incubated overnight at 37° C. The next day, the plates were washed three times with saline containing 0.05% Tween-20. Purified rat CGRP (Peninsula Labs) was used at a previously standardized concentration range of 25-1 ng/ml in a four-fold dilution to generate a standard curve. An equal volume of the sample was added in duplicate to a seventy-five μl/well of Tween-PBS (pH 7.1) and the plates were incubated for two hours on a shaker at room temperature. The plates were washed 3 times with Tween-PBS and 100 μl/well (0.2 mg/ml; 1:500 dilution) of in-house biotinylated, rabbit anti rat CGRP IgG (Peninsula Labs) was applied and incubated for two hours at room temperature. After three washes 150 μl of 1:1000 diluted streptavidine-horseradish peroxidase conjugate (Zymed, San Fransisco, Calif.) was added to each well and the plates were incubated for 90 min at room temperature. One-hundred-fifty μl/well of the substrate ortho-phenylene diamine dihydrochloride (Sigma Chemicals, St. Louis, Mo.) 0.4 mg/ml in citrate buffer (pH 4.9) was added after plates were washed three more times. Forty μl/100 ml of 30% H2O2 was added fresh to the citrate buffer just before adding to the wells to activate the coloring reaction. The reaction was stopped with 5N H2SO4 (50 μl/well) and the plates were read at 490 nm in an automated ELISA reader (Bio-Tek Instruments, Inc., Winooski, VE). The OD values were plotted against the CGRP standard curve and CGRP immunoreactivity was quantified using the appropriate formula and expressed as nanogram/ml.
Statistics. Release data are presented as the mean± standard error of the mean (SEM) of wells from three separate experiments. To compare the effects of activating peptide and control peptide on subsequent evoked release, an overall test based on the analysis of variance was performed (ANOVA). […] Intraductal injection studies were analyzed using a repeated measure ANOVA and individual means were compared using a Newman-Keuls multiple comparison test. Significance levels were set at p<0.05. […]

[2] = tested on: pancreatic afferent neurons / spinal segments T8-T10; experiment: c-FOS expression in spinal cord segments after pancreatic intraductal injection; format: in vivo, rat; conditions: peptide 100 μM intraductal, followed 30 min later by Capsaicin 0.5 mg/kg; 2.5 hours
Protocol: Intraductal (pancreatic duct) injection. To administer the necessary peptides directly into the rat pancreatic duct we followed a modified protocol, previously described by Kim et al. (1996). In brief, rats were anesthetized i.p. with nembutal sodium (Abbot Laboratories, Chicago, Ill.) (50 mg/kg body weight). The peritoneum was incised to expose the duodenum and the duodenal loop was pulled out. The pancreatic duct entering the duodenum was identified under dissecting microscope and a small niche was made into the duct with a 30-gauge needle. A polyethylene 10 tubing (0.61 mm outer diameter) (Becton Dickinson and Company, Franklin Lakes, N.J.) was guided into the duct and tied to secure its position. The common bile duct was ligated close to the liver to prevent entry of the injected substance into the liver. Similarly the duct was ligated near its entry into the duodenum. The position of the tube into the pancreatic duct was confirmed by freely flowing bile through the tubing. […] Thirty minutes later Capsaicin 0.5 mg/kg (total volume 500 μl) or vehicle (1×PBS, 10% ETOH, 1% Tween) was injected to half of the AcPep or CoPep injected rats. Three rats were included in each treatment group (n=3 for number of experiments). The tubing was carefully removed and bile flow from the liver into the duodenum was re-established. The abdominal cavity was closed with sutures. Rats were sacrificed 2.5 hrs after the initial injection.
C-fos staining. Rats were anesthetized with sodium pentobarbital (50 mg/kg i.p.) and perfused with 200 mls PBS followed by 500 mls ice-cold freshly prepared 4% paraformaldehyde in PBS. Spinal cord (level T5-T13) was removed, post-fixed in 4% paraformaldehyde for 18 hrs at 4° C. and placed in PBS (pH 7.4) containing 30% sucrose for 24 hrs at 4° C. Frozen sections (40 μm) were cut on a cryostat and stored as floating sections in PBS at 4° C. Every third section was stained for c-fos with a rabbit polyclonal serum, 1:1000 dilution, (c-fos, Ab-5, Oncogene Research Products) utilizing manufacturer's protocol. Antibody staining was visualized using a biotinylated secondary antisera and Vectastain ABC peroxidase kit with DAB as substrate. Sections were mounted on Superfrost Plus slides (VWR Scientific, West Chester, Pa.) and dehydrated. The number of c-FOS immunoreactive (IR) neurons were counted in 10 randomly chosen sections per segment under brightfield illumination and then averaged.
Statistics. Release data are presented as the mean± standard error of the mean (SEM) of wells from three separate experiments. […] Intraductal injection studies were analyzed using a repeated measure ANOVA and individual means were compared using a Newman-Keuls multiple comparison test. […]

PAR-2 [3] = target: T1, PAR-2 (Rattus norvegicus, UniProt Q63645); experiment: Intracellular Ca2+ response of primary neuronal cultures; format: cell-based; conditions: primary neuronal cultures of adult rat DRGs
T1 construct: assessing the response of primary neuronal cultures to trypsin and AcPep; endogenous in cells; host or cells: primary cultures of adult Sprague-Dawley rat DRG neurons
T1 sequence (Q63645 26-397): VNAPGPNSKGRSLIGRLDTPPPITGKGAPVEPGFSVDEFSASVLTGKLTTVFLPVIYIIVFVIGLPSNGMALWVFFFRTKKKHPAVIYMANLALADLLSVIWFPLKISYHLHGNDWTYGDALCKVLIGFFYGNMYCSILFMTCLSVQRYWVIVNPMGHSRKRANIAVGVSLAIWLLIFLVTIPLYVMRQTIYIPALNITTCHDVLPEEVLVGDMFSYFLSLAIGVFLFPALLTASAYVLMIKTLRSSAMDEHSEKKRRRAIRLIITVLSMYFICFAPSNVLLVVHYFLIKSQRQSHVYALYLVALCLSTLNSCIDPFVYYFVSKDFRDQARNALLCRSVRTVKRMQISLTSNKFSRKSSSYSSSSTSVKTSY
Source text: In the results which follow, it is shown that activated proteases can have direct effects on sensory neurons, mediated by specific receptors. PAR-1 and PAR-2 are present in rat DRGs (Young et al. 2000). The presence of one of these receptors, PAR-2, in sensory neurons is first confirmed by finding evidence of mRNA and protein expression in adult rat thoracic DRGs. The functional implications of PAR-2 expression are then examined by assessing the response of primary neuronal cultures to trypsin and AcPep. Both agonists increased intracellular Ca^2+ confirming previously reported findings that a functional PAR 2 receptor is present in adult rat DRGs (Steinhoff et al. 2000). Trypsin stimulates both PAR-1 and PAR-2 and therefore an increase in intracellular Ca^2+ can be caused by activation of the two different receptors. […] Therefore the increased intracellular Ca^2+ response to AcPep reflects specific PAR-2 mediated activation.
Cell Culture. Primary cultures of rat DRG neurons were prepared from male adult Sprague Dawley rats (200-250 gm). Following enzymatic treatment and dissociation, neurons were spun through a percoll cushion (Hofbauer et al. 1998) and were plated at a density of 10,000-20,000 neurons/well of a 48 well tissue culture plate. […]

PAR-2 [4] = target: T2, PAR-2 (Homo sapiens, UniProt P55085); conditions: Blackhart et al. 1996; cited from earlier work
T2 sequence (P55085 26-397): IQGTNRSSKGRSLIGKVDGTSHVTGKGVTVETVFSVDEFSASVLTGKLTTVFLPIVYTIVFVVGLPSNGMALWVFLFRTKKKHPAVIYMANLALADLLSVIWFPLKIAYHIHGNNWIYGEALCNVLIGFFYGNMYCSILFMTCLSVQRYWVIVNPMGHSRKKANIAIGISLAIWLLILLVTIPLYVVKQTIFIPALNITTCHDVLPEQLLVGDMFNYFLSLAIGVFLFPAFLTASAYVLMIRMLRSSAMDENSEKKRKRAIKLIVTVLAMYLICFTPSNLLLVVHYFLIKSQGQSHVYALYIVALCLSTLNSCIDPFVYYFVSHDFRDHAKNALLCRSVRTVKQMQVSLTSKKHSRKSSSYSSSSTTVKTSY

PAR-1 = target: T3, PAR-1 (Homo sapiens, UniProt P25116); conditions: Blackhart et al. 1996; cited from earlier work
T3 sequence (P25116 22-425): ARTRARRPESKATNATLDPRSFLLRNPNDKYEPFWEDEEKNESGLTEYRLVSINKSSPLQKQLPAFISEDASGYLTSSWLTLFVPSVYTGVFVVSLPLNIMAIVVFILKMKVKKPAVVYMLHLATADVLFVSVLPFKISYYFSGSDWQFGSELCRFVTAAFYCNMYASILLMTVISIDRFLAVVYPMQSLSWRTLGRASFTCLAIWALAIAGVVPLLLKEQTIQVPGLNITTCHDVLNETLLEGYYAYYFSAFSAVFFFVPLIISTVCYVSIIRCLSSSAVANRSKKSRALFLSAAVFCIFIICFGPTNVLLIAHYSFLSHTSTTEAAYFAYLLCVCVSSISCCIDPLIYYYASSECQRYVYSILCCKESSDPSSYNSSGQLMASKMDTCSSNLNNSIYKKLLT

mouse Par2 = target: T4, mouse Par2 (Mus musculus, UniProt P55086); conditions: expressed in frog oocytes; cited from earlier work
T4 construct: host or cells: frog oocytes
T4 sequence (P55086 26-399): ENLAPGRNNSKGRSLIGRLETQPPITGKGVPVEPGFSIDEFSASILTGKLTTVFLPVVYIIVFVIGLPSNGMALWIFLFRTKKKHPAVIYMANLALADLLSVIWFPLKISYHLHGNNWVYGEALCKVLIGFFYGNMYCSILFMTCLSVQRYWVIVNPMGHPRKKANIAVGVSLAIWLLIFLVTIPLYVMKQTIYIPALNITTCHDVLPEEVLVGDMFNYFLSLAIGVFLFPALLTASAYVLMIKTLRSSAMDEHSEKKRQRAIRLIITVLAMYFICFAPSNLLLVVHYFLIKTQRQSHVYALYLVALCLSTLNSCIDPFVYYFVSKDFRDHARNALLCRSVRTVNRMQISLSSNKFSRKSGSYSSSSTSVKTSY

[5] = target: T5, protease activated receptor-2 (PAR-2) of adult rat thoracic dorsal root ganglion neurons (rat, UniProt Q63645 37-397); experiment: cell-based or functional assay
T5 sequence (looked up): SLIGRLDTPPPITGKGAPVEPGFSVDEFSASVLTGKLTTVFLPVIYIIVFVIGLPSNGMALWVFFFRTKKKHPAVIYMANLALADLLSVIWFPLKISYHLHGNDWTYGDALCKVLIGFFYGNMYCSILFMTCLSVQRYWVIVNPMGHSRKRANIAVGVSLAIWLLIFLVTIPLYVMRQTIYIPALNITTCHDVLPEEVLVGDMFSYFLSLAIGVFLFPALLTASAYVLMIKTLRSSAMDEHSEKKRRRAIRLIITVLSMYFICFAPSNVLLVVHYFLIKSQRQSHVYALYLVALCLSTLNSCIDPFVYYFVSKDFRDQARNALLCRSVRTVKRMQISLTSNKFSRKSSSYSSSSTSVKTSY

Molecule: RLGILS-amide (RLGILS-NH2) [CoPep]
CGRP release induced by Capsaicin (50 nM) ([1]; then Capsaicin 50 nM for 10 min in presence of peptide): 4.77 ng/mL
CGRP release induced by KCl (70 mM) ([1]; then KCl 70 mM for 10 min in presence of peptide): 1.8 ng/mL
Capsaicin-evoked c-FOS expression in segments T8-T10 [2]: as strong a stimulant as AcPep alone

intracellular Ca2+ (PAR-2 [3]): increased
Molecule: trypsin: serine protease that stimulates both PAR-1 and PAR-2
activation of PAR-2 (PAR-2 [4]): stimulates
activation of PAR-1 (PAR-1): stimulates
receptor activation, in words (mouse Par2): could be activated with nanomolar concentrations

Molecule: thrombin
concentration without receptor activation (mouse Par2): > 100 nM

augmentation of Capsaicin-evoked CGRP release (multiple of the basal release), AcPep 10 µM [5]: ~2 fold
augmentation of KCl-evoked CGRP release (multiple of the basal release), AcPep 10 µM [5]: 1.5 fold
Molecule: SLIGRL [PAR-2 activating peptide (AcPep)]
